Assay results from article PMC4707092 (Journal of immunology (Baltimore, Md. : 1950), 2015).

Molecular target: C3b (UniProt P01024 749-1663, most molecules attached to the chip surface via the thioester group)
Experiment: SPR

B1: midiFH (other)
chain: AGEDCNELPPRRNTEILTGSWSDQTYPEGTQAIYKCRPGYRSLGNVIMVCRKGEWVALNPLRKCQKRPCGHPGDTPFGTFTLTGGNVFEYGVKAVYTCNEGYQLLGEINYRECDTDGWTNDIPICEVVKCLPVTAPENGKIVSSAMEPDREYHFGQAVRFVCNSGYKIEGDEEMHCSDDGFWSKEKPKCVEISCKSPDVINGSPISQKIIYKENERFQYKCNMGYEYSERGDAVCTESGWRPLPSCEEGKCGPPPPIDNGDITSFPLSVYAPASSVEYQCQNLYQLEGNKRITCRNGQWSEPPKCLHPCVISREIMENYNIALRWTAKQKLYSRTGESVEFVCKRGYRLSSRSHTLRTTCWDGKLEYPTCAKREDCNELPPRRNTEILTGSWSDQTYPEGTQAIYKCRPGYRSLGNVIMVCRKGEWVALNPLRKCQKRPCGHPGDTPFGTFTLTGGNVFEYGVKAVYTCNEGYQLLGEINYRECDTDGWTNDIPICEVVKCLPVTAPENGKIVSSAMEPDREYHFGQAVRFVCNSGYKIEGDEEMHCSDDGFWSKEKPKCVEISCKSPDVINGSPISQKIIYKENERFQYKCNMGYEYSERGDAVCTESGWRPLPSCEEGKCGPPPPIDNGDITSFPLSVYAPASSVEYQCQNLYQLEGNKRITCRNGQWSEPPKCLHPCVISREIMENYNIALRWTAKQKLYSRTGESVEFVCKRGYRLSSRSHTLRTTCWDGKLEYPTCAKR
Kd: 27 nM

B2: miniFH (other)
chain: AGEDCNELPPRRNTEILTGSWSDQTYPEGTQAIYKCRPGYRSLGNVIMVCRKGEWVALNPLRKCQKRPCGHPGDTPFGTFTLTGGNVFEYGVKAVYTCNEGYQLLGEINYRECDTDGWTNDIPICEVVKCLPVTAPENGKIVSSAMEPDREYHFGQAVRFVCNSGYKIEGDEEMHCSDDGFWSKEKPKCVEISCKSPDVINGSPISQKIIYKENERFQYKCNMGYEYSERGDAVCTESGWRPLPSCEEGKCGPPPPIDNGDITSFPLSVYAPASSVEYQCQNLYQLEGNKRITCRNGQWSEPPKCLHPCVISREIMENYNIALRWTAKQKLYSRTGESVEFVCKRGYRLSSRSHTLRTTCWDGKLEYPTCAKR
Kd: 709 nM
